According to the supplement of paper PMC10567573:

B1: NEK8 (parent)
chain: YTFGSNQHGQLGTNTRRGSRAPCK
B2: PLK2 (parent)
chain: MELLRTITYQPAASTKMCEQALGK

Variants of: B1
Experiment: protein stability index of a GFP-peptide fusion (GPS, HEK-293T) (PSI 1-6); higher = more stable
Conditions: c terminus: a fixed tail appended
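Also: lentivirally expressed fusions sorted by FACS into six bins by GFP to DsRed ratio, PSI derived from sequencing read proportions per bin multiplied by bin number.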

Protein stability index: each site, then its substitutions
C23: V 4.25 | L 3.91 | R 4 | S 3.72 | D 4.19 | M 3.61 | E 4.27 | K 4.21 | T 3.9 | Q 4.18 | N 4.19 | H 4.25 | Y 3.46 | P 3.89 | W 3.37 | I 3.59 | A 3.95 | F 3.61 | G 3.4
K24: A 3.45 | G 4.29 | L 3.81 | F 2.93 | D 3.91 | R 3.44 | P 4.09 | Y 2.63 | W 2.59 | E 3.77 | S 3.24 | H 3.52 | N 3.2 | M 2.94 | C 2.72 | T 3.43 | Q 3.79 | I 3.08 | V 3.68
A21: W 2.69 | T 4.3 | V 3.84 | Y 3.38
P22: H 3.53 | V 3.99 | N 4.22 | I 3.94 | E 3.88 | C 3.84 | F 3.66 | R 3.82 | D 4.13 | L 3.4 | S 3.96 | Q 3.73 | Y 3.72 | W 3.51 | T 3.95 | K 3.82 | G 4.3 | A 3.82 | M 3.44

Variants of: B2
Experiment: as above
Conditions: c terminus: a fixed tail appended

Protein stability index: each site, then its substitutions
I7: G 3.72 | Q 2.79 | S 2.54 | F 1.94 | H 2.8 | P 2.12 | K 3.24 | C 2.1 | D 4.13 | A 2.34 | W 2.27 | E 2.89 | N 3.19
G23: H 2.88 | P 2.27 | N 2.37 | V 1.97 | S 3.38 | E 2.22 | R 1.34 | Q 1.87 | A 2.64 | C 2.96 | Y 1.9 | F 2.36
K24: S 2.47 | T 2.21 | E 1.41 | F 3.31 | L 3.19 | A 2.89 | Q 1.89 | G 1.65 | C 2.46 | I 3.23 | D 2.73
Q10: N 3.54 | C 1.28 | T 2.12 | M 1.99 | I 2.81 | V 4.15 | Y 3.24 | D 2.11 | H 1.81 | W 2.6
Y9: P 2.04 | W 1.45 | D 2 | H 2.1 | R 2.19 | N 2.16 | G 2.46 | K 1.64 | F 2.05 | E 2.05 | L 1.73 | C 2.38 | T 2.29
M17: N 2.19 | F 1.52 | L 2.84 | C 2.07 | H 2.26 | A 2.37 | Y 1.8 | E 1.86 | I 2.18 | W 2.46 | R 2.68 | Q 2.65
A21: P 2.28 | G 2.42 | H 1.94 | M 2.21 | D 2.17 | N 2.22 | C 2.68 | W 3.26 | T 2.79 | S 2
T6: H 2.2 | G 3.05 | Q 1.93 | Y 1.6 | N 2.81 | F 1.68 | E 3.17 | M 1.73 | S 1.64 | P 4.1 | I 2.65 | L 1.69 | D 3.2
A13: Q 3.13 | M 2.88 | T 1.15 | D 2.51 | N 2.54 | H 2.36 | C 3.34 | S 3.29 | P 1.74 | R 2.39 | G 2.97
C18: Q 1.57 | P 3.07 | F 2.19 | A 3.42 | T 2.67 | M 2.67 | I 2.49 | L 2.71 | G 3 | W 2.17
R5: S 2.71 | Y 1.4 | A 1.92 | W 2.88 | E 3.55 | G 3.02 | I 3.09 | C 1.47 | F 2.18 | V 4.09 | H 3.02
L22: H 3.36 | K 1.66 | G 3.33 | S 1.52 | A 2.29 | V 2.82 | R 1.89 | Q 2.02 | E 2.21 | N 2.31 | Y 2.79 | P 1.79 | F 2.92 | C 2.54
M1: W 2.16 | P 4.09 | T 3.74 | L 2.37 | A 2.18 | G 3.84 | K 3.84 | I 2.03 | S 2.17 | E 4.07 | V 2.23 | F 2.04
Q20: M 3.03 | H 2.51 | P 2.62 | D 1.95 | L 2.38 | C 3.11 | W 2.02 | A 2.63 | K 2.22
A12: E 2.58 | D 1.82 | P 2.18 | C 2.82 | H 2.41 | Q 2.03 | W 1.79 | Y 2.21 | N 2.8
T15: N 2.46 | K 1.68 | C 2.07 | D 2.95 | H 3.23 | L 2.23 | A 2.17 | W 3.77 | Y 2.83 | V 1.54 | E 2.53 | P 1.58 | F 1.79 | G 2.53 | R 1.44
K16: A 2.13 | I 2.61 | T 2.55 | R 2.07 | Q 2.22 | F 1.83 | H 1.76 | V 1.96 | G 1.81 | D 2.38 | Y 3.02
S14: V 2.44 | D 1.68 | I 1.61 | G 1.9 | H 3.11 | C 2.5 | L 1.64 | Q 2.5 | W 3.03 | A 3.14 | R 2.05 | T 2.5
E2: R 2.15 | M 2.09 | L 2.15 | C 1.93 | I 1.51 | K 2.7 | P 2.73 | W 2.57 | N 2.61 | G 2.69 | Y 2.03 | S 2.38 | Q 1.91
T8: M 1.96 | P 1.97 | Y 2.93 | I 3.71 | A 2.94 | N 2.68 | E 1.78 | L 2.91
L4: G 3.76 | T 3.67 | I 2.92 | P 4.25 | V 2.77 | F 2.05 | A 2.55 | Q 2.58 | C 2.02 | W 1.7 | M 1.61 | S 3.91
P11: L 4.39 | I 2.82 | D 1.6 | E 1.91 | F 2.52 | Q 2.65 | R 2.16 | T 2.72 | S 3.09 | K 1.93
L3: C 2.17 | W 2.48 | S 2.21 | G 1.89 | H 1.62 | T 1.94 | N 1.88 | E 2.56 | F 2.56 | Y 2.07
E19: C 2.09 | F 2.15 | A 2.59 | I 2.42 | Q 1.52 | S 1.38 | L 2.52 | Y 2.82 | T 2.84 | G 2.87 | V 2.46 | R 2.59
